Measurements from IntAct's records for PubMed 25960410.

B1: Mortality factor 4-like protein 1 (Homo sapiens), Q9UBU8-2 (parent)
chain: MAPKQDPKPKFQEGERVLCFHGPLLYEAKCVKVAIKDKQVKYFIHYSGWNKNWDEWVPESRVLKYVDTNLQKQRELQKANQEQYAEGKMRGAAPGKKTSGLQQKNVEVKTKKNKQKTPGNGDGGSTSETPQPPRKKRARVDPTVENEETFMNRVEVKVKIPEELKPWLVDDWDLITRQKQLFYLPAKKNVDSILEDYANYKKSRGNTDNKEYAVNEVVAGIKEYFNVMLGTQLLYKFERPQYAEILADHPDAPMSQVYGAPHLLRLFVRIGAMLAYTPLDEKSLALLLNYLHDFLKYLAKNSATLFSASDYEVAPPEYHRKAV

Variants of: B1
Conditions: with mrgbp_human MRGBP

| Variant | effect of a mutation on the interaction |
| --- | --- |
| W172A | decreasing interaction strength |
| L287A | decreasing interaction strength |
| L168A | decreasing interaction strength |
